Experimental data as given in paper PMC8242032, “Non-canonical function of DGCR8 in DNA double-strand break repair signaling and tumor radioresistance” (Nature Communications, 2021).

Target: T1, MBP-DGCR8 (human, UniProt Q8WYQ5 1-773)
T1 construct: DGCR8, human, full-length, in an MBP-tagged destination vector; also called purified DGCR8; source: bacterially purified (eluted with maltose)
T1 sequence (looked up): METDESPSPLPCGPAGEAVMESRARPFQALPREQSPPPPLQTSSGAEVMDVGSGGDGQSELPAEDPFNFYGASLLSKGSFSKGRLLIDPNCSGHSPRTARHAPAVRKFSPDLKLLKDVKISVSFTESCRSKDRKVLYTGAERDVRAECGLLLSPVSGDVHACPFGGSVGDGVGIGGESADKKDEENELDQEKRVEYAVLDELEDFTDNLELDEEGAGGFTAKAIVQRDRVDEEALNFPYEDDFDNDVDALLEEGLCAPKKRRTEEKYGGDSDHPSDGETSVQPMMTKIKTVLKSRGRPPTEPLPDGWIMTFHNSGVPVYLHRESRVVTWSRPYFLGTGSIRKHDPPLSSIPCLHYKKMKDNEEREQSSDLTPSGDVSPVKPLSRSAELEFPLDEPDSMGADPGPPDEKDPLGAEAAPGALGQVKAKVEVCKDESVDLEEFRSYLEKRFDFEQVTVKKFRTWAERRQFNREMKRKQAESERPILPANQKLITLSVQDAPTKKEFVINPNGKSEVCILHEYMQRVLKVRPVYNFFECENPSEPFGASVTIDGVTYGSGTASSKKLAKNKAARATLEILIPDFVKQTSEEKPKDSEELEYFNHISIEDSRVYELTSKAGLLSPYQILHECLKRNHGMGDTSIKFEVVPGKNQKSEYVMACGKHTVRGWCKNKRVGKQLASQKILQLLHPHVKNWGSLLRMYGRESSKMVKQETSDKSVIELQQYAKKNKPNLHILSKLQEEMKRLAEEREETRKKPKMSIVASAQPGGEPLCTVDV
Assay: pull-down; SFB-USP51 (or SFB-GFP) purified from transfected HEK293T cells, retained on S-protein beads and incubated with purified MBP-DGCR8, 4 °C overnight; washed with NETN buffer
Conditions: both partners purified

B1: SFB-USP51 (enzyme, human, UniProt Q70EK9 1-711, looked up)
chain: MAQVRETSLPSGSGVRWISGGGGGASPEEAVEKAGKMEEAAAGATKASSRREAEEMKLEPLQEREPAPEENLTWSSSGGDEKVLPSIPLRCHSSSSPVCPRRKPRPRPQPRARSRSQPGLSAPPPPPARPPPPPPPPPPPAPRPRAWRGSRRRSRPGSRPQTRRSCSGDLDGSGDPGGLGDWLLEVEFGQGPTGCSHVESFKVGKNWQKNLRLIYQRFVWSGTPETRKRKAKSCICHVCSTHMNRLHSCLSCVFFGCFTEKHIHKHAETKQHHLAVDLYHGVIYCFMCKDYVYDKDIEQIAKETKEKILRLLTSTSTDVSHQQFMTSGFEDKQSTCETKEQEPKLVKPKKKRRKKSVYTVGLRGLINLGNTCFMNCIVQALTHIPLLKDFFLSDKHKCIMTSPSLCLVCEMSSLFHAMYSGSRTPHIPYKLLHLIWIHAEHLAGYRQQDAHEFLIAILDVLHRHSKDDSGGQEANNPNCCNCIIDQIFTGGLQSDVTCQACHSVSTTIDPCWDISLDLPGSCATFDSQNPERADSTVSRDDHIPGIPSLTDCLQWFTRPEHLGSSAKIKCNSCQSYQESTKQLTMKKLPIVACFHLKRFEHVGKQRRKINTFISFPLELDMTPFLASTKESRMKEGQPPTDCVPNENKYSLFAVINHHGTLESGHYTSFIRQQKDQWFSCDDAIITKATIEDLLYSEGYLLFYHKQGLEKD
notes: USP51, human DUB ORF in the pBabe-SFB vector; also called SFB-tagged USP51; source: HEK293T, transfected, in lysate; purified from transfected HEK293T cells
B1: binds.
